{"source": "paper PMC11367474", "about": "“Two-metal ion mechanism of DNA cleavage by activated, filamentous SgrAI”", "key": {"SgrAI WT": {"molecular_target": "T1, SgrAI WT (UniProt Q9F6L0 1-339)", "T1 sequence": "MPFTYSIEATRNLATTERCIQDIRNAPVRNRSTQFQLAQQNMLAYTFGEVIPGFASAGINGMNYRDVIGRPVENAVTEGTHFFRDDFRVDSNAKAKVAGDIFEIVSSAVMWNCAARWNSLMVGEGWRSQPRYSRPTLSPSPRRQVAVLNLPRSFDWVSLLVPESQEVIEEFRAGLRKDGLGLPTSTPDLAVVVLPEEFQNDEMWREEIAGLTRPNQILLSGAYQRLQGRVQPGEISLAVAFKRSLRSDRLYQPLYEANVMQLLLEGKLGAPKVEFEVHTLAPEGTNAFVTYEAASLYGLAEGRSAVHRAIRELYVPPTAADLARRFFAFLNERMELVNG", "assay": "cryo-EM structure (3.1 A); Mg2+ in sites A and B; filament; DNA cleaved at the scissile phosphate during 1.5 h incubation (product complex); Cryo-EM samples: buffer containing MgCl2, room temperature (30 min for K242A, 1.5 h for WT); full buffer, salt and pH not in the material", "settings": "protein: recombinant; tags: His tag implied (HisTrap purification); chain copies: 2; blunt"}, "SgrAI K242A": {"molecular_target": "T2, SgrAI K242A (UniProt Q9F6L0 1-339, K242A;L336K)", "T2 sequence": "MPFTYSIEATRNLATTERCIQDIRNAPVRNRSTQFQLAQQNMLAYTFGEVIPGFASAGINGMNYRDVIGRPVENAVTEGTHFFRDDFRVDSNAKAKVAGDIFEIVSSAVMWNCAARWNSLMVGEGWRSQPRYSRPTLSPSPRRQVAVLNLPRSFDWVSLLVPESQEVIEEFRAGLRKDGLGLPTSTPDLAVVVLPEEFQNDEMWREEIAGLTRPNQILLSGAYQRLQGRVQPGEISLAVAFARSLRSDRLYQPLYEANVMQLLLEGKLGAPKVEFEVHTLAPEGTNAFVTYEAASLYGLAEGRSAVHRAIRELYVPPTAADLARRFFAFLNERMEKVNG", "assay": "cryo-EM structure (3.3 A); Mg2+ in sites A and B; filament; DNA uncleaved; 30 min at room temperature; Cryo-EM samples: buffer containing MgCl2, room temperature (30 min for K242A, 1.5 h for WT); full buffer, salt and pH not in the material", "settings": "protein: recombinant; tags: His tag implied (HisTrap purification); chain copies: 2; blunt"}}, "data": [{"binder": "40-1 (dsDNA) DNA 1: GATGCGTGGGTCTTCACACCGGTGGATGCGTGGGTCTTCA DNA 2: TGAAGACCCACGCATCCACCGGTGTGAAGACCCACGCATC", "values": [{"measurement": "binding result", "setting": "SgrAI WT", "result": "binds"}, {"measurement": "binding result", "setting": "SgrAI K242A", "result": "binds"}]}]}
